The text below walks through data of paper PMC10709652, “The separation pin distinguishes the pro– and anti–recombinogenic functions of Saccharomyces cerevisiae Srs2” (Nature Communications, 2023).

Substrate in series [1]: Nc1ncnc2c1ncn2[C@@H]1O[C@H](COP(=O)(O)OP(=O)(O)OP(=O)(O)O)[C@@H](O)[C@H]1O
Kind of series: ATP hydrolysis, gamma-32P-ATP, thin layer chromatography. The class given is biochemical, Saccharomyces cerevisiae. The conditions noted are these: M13 ssDNA 2.5 µM (nucleotides), 2 mM MgCl2, 100 mM KCl, pH 7.6, 30 °C, 40 nM protein.

Substrate in series [2]: Nc1ncnc2c1ncn2[C@@H]1O[C@H](COP(=O)(O)OP(=O)(O)OP(=O)(O)O)[C@@H](O)[C@H]1O
Described as above. The class given is biochemical, Saccharomyces cerevisiae. The conditions noted are these: M13 ssDNA 2.5 µM (nucleotides), 2 mM MgCl2, 100 mM KCl, pH 7.6, 30 °C, 40 nM protein. From the text:
ATP hydrolysis, gamma-32P-ATP, thin layer chromatography on Srs2^898 (GFP-Srs2 1-898) | The F68A, P671A, and Y775A mutants were all largely unperturbed with respect to ATP hydrolysis
This is another data set of the same source.

B1: Srs2^898 (GFP-Srs2 1-898) (Saccharomyces cerevisiae S288C; F285A) (protein)
chain: MSSNNDLWLHLVSQLNTQQRAAALFDYTRGLQVIAGPGTGKTKVLTSRVAYLILHHHIHPRDIIVTTFTNKAANEMKERLQEMLRGAGVNISELLIGTFHSICLKILYRFGHLVDLQKDWRIIDEKEIDVILDDMIEKVPDQIRDYASSITRKVNLCMPSKNGDEWTIHPKLIKKQISKLKSNAILPEEYILDSNHDAALGYFYQIYQSELSKKNTLDFDDLLMYTFRLLTRVRVLSNIKHVLVDEFQDTNGIQLDLMFLFAKGNHHLSRGMTIVGDPDQSIYAARNALAHNFLEMGRKCPIEYSTIILVENYRSSQKILNTSEILITQQNKGRQNRAPLRAQFDLDFPPVYMNFPAYFLEAPSLVRELLYLKALPNLFTFNDFAILVRQRRQIKRIESALIEHRIPYKIIRGHSFWDSKETRAMLNLLKLIFSPNDKHAILASLLYPARGLGPATGEKIKNALDTLATDVSCFQILKDISSKKIMLDIPTKGRSVIADFISMIENCQLLLQSTLLGGLSDLFDKLYELSGLKYEYLYKDGKKKNDQLEKSEPNLLNARHKNIELLKNYFLALLSKSESSDKEKNEAIKAATDEAEPIENKVITPKEYLRNFFNSLSLHSDAAEEEESESNKDAKIKREKNGFVTISTIHGAKGLEWPVVFIPGCEEGIIPCVFNDDKKDESEEDEEEDQENSKKDASPKKTRVLSVEDSIDEERRMFFVAQTRAKYLLYLSNTVTVEDVDRPRIASRFLTTDLIKAMSDSQKLFESTNSIKKLYRILNKKPPAEDDKLFSLDQLRKDYNQFIENRRERMIWQGIQMNDVYGIQLSRNKLLGSVSDFTSAADQLRLETQNSIFPQKKLIEKSRPSKINGNYAPKSRVKSPEKRYAPETTSFHSPTKKK
notes: residues 1-898 of 1174 (C-terminal 276 residues omitted), N-terminal GFP tag kept, pET15b, Talon purified; expressed in E. coli Rosetta2 (DE3)
With B1, in series [1], the Km (in general, the concentration of substrate that gives half-maximal velocity) is 2750 ± 790 µM and the kcat stood at 25 ± 4 sec–1.

B2: Srs2^898 (GFP-Srs2 1-898) (Saccharomyces cerevisiae S288C; Y775A) (protein)
chain: MSSNNDLWLHLVSQLNTQQRAAALFDYTRGLQVIAGPGTGKTKVLTSRVAYLILHHHIHPRDIIVTTFTNKAANEMKERLQEMLRGAGVNISELLIGTFHSICLKILYRFGHLVDLQKDWRIIDEKEIDVILDDMIEKVPDQIRDYASSITRKVNLCMPSKNGDEWTIHPKLIKKQISKLKSNAILPEEYILDSNHDAALGYFYQIYQSELSKKNTLDFDDLLMYTFRLLTRVRVLSNIKHVLVDEFQDTNGIQLDLMFLFAKGNHHLSRGMTIVGDPDQSIYAFRNALAHNFLEMGRKCPIEYSTIILVENYRSSQKILNTSEILITQQNKGRQNRAPLRAQFDLDFPPVYMNFPAYFLEAPSLVRELLYLKALPNLFTFNDFAILVRQRRQIKRIESALIEHRIPYKIIRGHSFWDSKETRAMLNLLKLIFSPNDKHAILASLLYPARGLGPATGEKIKNALDTLATDVSCFQILKDISSKKIMLDIPTKGRSVIADFISMIENCQLLLQSTLLGGLSDLFDKLYELSGLKYEYLYKDGKKKNDQLEKSEPNLLNARHKNIELLKNYFLALLSKSESSDKEKNEAIKAATDEAEPIENKVITPKEYLRNFFNSLSLHSDAAEEEESESNKDAKIKREKNGFVTISTIHGAKGLEWPVVFIPGCEEGIIPCVFNDDKKDESEEDEEEDQENSKKDASPKKTRVLSVEDSIDEERRMFFVAQTRAKYLLYLSNTVTVEDVDRPRIASRFLTTDLIKAMSDSQKLFESTNSIKKLARILNKKPPAEDDKLFSLDQLRKDYNQFIENRRERMIWQGIQMNDVYGIQLSRNKLLGSVSDFTSAADQLRLETQNSIFPQKKLIEKSRPSKINGNYAPKSRVKSPEKRYAPETTSFHSPTKKK
notes: as for B1
With B2, in series [2], the Michaelis-Menten constant (Km) stood at 1610 ± 740 µM and the kcat turned out to be 51 ± 8 sec–1.

B3: Srs2^898 (GFP-Srs2 1-898) (Saccharomyces cerevisiae S288C; F68A) (protein)
chain: MSSNNDLWLHLVSQLNTQQRAAALFDYTRGLQVIAGPGTGKTKVLTSRVAYLILHHHIHPRDIIVTTATNKAANEMKERLQEMLRGAGVNISELLIGTFHSICLKILYRFGHLVDLQKDWRIIDEKEIDVILDDMIEKVPDQIRDYASSITRKVNLCMPSKNGDEWTIHPKLIKKQISKLKSNAILPEEYILDSNHDAALGYFYQIYQSELSKKNTLDFDDLLMYTFRLLTRVRVLSNIKHVLVDEFQDTNGIQLDLMFLFAKGNHHLSRGMTIVGDPDQSIYAFRNALAHNFLEMGRKCPIEYSTIILVENYRSSQKILNTSEILITQQNKGRQNRAPLRAQFDLDFPPVYMNFPAYFLEAPSLVRELLYLKALPNLFTFNDFAILVRQRRQIKRIESALIEHRIPYKIIRGHSFWDSKETRAMLNLLKLIFSPNDKHAILASLLYPARGLGPATGEKIKNALDTLATDVSCFQILKDISSKKIMLDIPTKGRSVIADFISMIENCQLLLQSTLLGGLSDLFDKLYELSGLKYEYLYKDGKKKNDQLEKSEPNLLNARHKNIELLKNYFLALLSKSESSDKEKNEAIKAATDEAEPIENKVITPKEYLRNFFNSLSLHSDAAEEEESESNKDAKIKREKNGFVTISTIHGAKGLEWPVVFIPGCEEGIIPCVFNDDKKDESEEDEEEDQENSKKDASPKKTRVLSVEDSIDEERRMFFVAQTRAKYLLYLSNTVTVEDVDRPRIASRFLTTDLIKAMSDSQKLFESTNSIKKLYRILNKKPPAEDDKLFSLDQLRKDYNQFIENRRERMIWQGIQMNDVYGIQLSRNKLLGSVSDFTSAADQLRLETQNSIFPQKKLIEKSRPSKINGNYAPKSRVKSPEKRYAPETTSFHSPTKKK
notes: as for B1
With B3, in series [2], the Km was found to be 1520 ± 710 µM and the kcat worked out at 49 ± 8 sec–1.

B4: Srs2^898 (GFP-Srs2 1-898) (Saccharomyces cerevisiae S288C; H650A) (protein)
chain: MSSNNDLWLHLVSQLNTQQRAAALFDYTRGLQVIAGPGTGKTKVLTSRVAYLILHHHIHPRDIIVTTFTNKAANEMKERLQEMLRGAGVNISELLIGTFHSICLKILYRFGHLVDLQKDWRIIDEKEIDVILDDMIEKVPDQIRDYASSITRKVNLCMPSKNGDEWTIHPKLIKKQISKLKSNAILPEEYILDSNHDAALGYFYQIYQSELSKKNTLDFDDLLMYTFRLLTRVRVLSNIKHVLVDEFQDTNGIQLDLMFLFAKGNHHLSRGMTIVGDPDQSIYAFRNALAHNFLEMGRKCPIEYSTIILVENYRSSQKILNTSEILITQQNKGRQNRAPLRAQFDLDFPPVYMNFPAYFLEAPSLVRELLYLKALPNLFTFNDFAILVRQRRQIKRIESALIEHRIPYKIIRGHSFWDSKETRAMLNLLKLIFSPNDKHAILASLLYPARGLGPATGEKIKNALDTLATDVSCFQILKDISSKKIMLDIPTKGRSVIADFISMIENCQLLLQSTLLGGLSDLFDKLYELSGLKYEYLYKDGKKKNDQLEKSEPNLLNARHKNIELLKNYFLALLSKSESSDKEKNEAIKAATDEAEPIENKVITPKEYLRNFFNSLSLHSDAAEEEESESNKDAKIKREKNGFVTISTIAGAKGLEWPVVFIPGCEEGIIPCVFNDDKKDESEEDEEEDQENSKKDASPKKTRVLSVEDSIDEERRMFFVAQTRAKYLLYLSNTVTVEDVDRPRIASRFLTTDLIKAMSDSQKLFESTNSIKKLYRILNKKPPAEDDKLFSLDQLRKDYNQFIENRRERMIWQGIQMNDVYGIQLSRNKLLGSVSDFTSAADQLRLETQNSIFPQKKLIEKSRPSKINGNYAPKSRVKSPEKRYAPETTSFHSPTKKK
notes: as for B1
As for B4, in series [1], the Michaelis-Menten constant (Km) stood at 2910 ± 780 µM and the kcat turned out to be 15 ± 2 sec–1.
